The target in series [1] is T1, LovD (simvastatin synthase) (Aspergillus terreus, UniProt Q9Y7D1).
T1 sequence (Q9Y7D1 1-413): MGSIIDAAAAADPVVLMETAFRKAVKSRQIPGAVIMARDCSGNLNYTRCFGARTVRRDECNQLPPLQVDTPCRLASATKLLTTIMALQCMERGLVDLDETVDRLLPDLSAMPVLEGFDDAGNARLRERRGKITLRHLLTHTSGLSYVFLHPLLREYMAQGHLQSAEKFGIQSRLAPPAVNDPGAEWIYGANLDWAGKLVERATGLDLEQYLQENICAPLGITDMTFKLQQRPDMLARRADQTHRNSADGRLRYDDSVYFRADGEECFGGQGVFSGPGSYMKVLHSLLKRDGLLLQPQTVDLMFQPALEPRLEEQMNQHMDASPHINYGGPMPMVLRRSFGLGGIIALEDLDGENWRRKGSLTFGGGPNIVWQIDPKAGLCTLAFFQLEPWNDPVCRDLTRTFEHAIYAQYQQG
Kind of series: HPLC at […] nm, conversion of MJSS to simvastatin sodium salt. The series is classed as biochemical. The settings on record: read-out: Wild Type; MJSS fixed at 2 mM, DMB-S-MMP 0.25-5 mM; 10% DMSO.

Series [2] concerns C[C@H]1C=C2C=C[C@H](C)[C@H](CC[C@@H](O)C[C@@H](O)CC(=O)O)[C@H]2[C@@H](O)C1. Nature of the series: purified protein. The class given is biochemical, Aspergillus terreus. The settings on record: DMB-S-MMP fixed at 2 mM, MJSS 0.25-5 mM; 10% DMSO.
Series [3] relates to CCC(C)(C)C(=O)SCCC(=O)OC. Kind of series: purified protein. The series is classed as biochemical, Aspergillus terreus. The settings on record: MJSS fixed at 2 mM, DMB-S-MMP 0.25-5 mM; 10% DMSO.
Substrate in series [4]: C[C@H]1C=C2C=C[C@H](C)[C@H](CC[C@@H](O)C[C@@H](O)CC(=O)O)[C@H]2[C@@H](O)C1
Kind of series: purified protein. The series is classed as biochemical, Aspergillus terreus. The settings on record: DMB-S-MMP fixed at 2 mM, MJSS 0.25-5 mM; 10% DMSO. This is another data set of the same source.

Usually kcat stands for the maximal rate divided by the concentration of active sites.

As to `CCC(C)(C)C(=O)SCCC(=O)OC` [DMB-S-MMP, α-dimethylbutyryl-S-methyl-3-mercaptopropionate], in series [1], the Km amounted to 670 ± 40 µM.

Turning to “LovD (simvastatin synthase) (Aspergillus terreus; C40A)”, the results for the Km in series [2] and in series [3] were 800 ± 210 µM and 630 ± 60 µM, respectively. For the same molecule, the kcat in series [2] came out at 0.0103 ± 0.00083 s⁻¹.

For the molecule “LovD (simvastatin synthase) (Aspergillus terreus; C40A/C60N)”, in series [2], the Km was determined as 820 ± 100 µM and the kcat was 0.01 ± 0.00033 s⁻¹. The Km in series [3] was found to be 610 ± 30 µM.

In the case of “LovD (simvastatin synthase) (Aspergillus terreus; C60A)”, in series [2], the Km turned out to be 810 ± 190 µM and the kcat came to 0.01 ± 0.00067 s⁻¹. For the same molecule, the Km in series [3] is 580 ± 30 µM.

B1: LovD (simvastatin synthase) (Aspergillus terreus) (protein)
chain: MGSIIDAAAAADPVVLMETAFRKAVKSRQIPGAVIMARDCSGNLNYTRCFGARTVRRDECNQLPPLQVDTPCRLASATKLLTTIMALQCMERGLVDLDETVDRLLPDLSAMPVLEGFDDAGNARLRERRGKITLRHLLTHTSGLSYVFLHPLLREYMAQGHLQSAEKFGIQSRLAPPAVNDPGAEWIYGANLDWAGKLVERATGLDLEQYLQENICAPLGITDMTFKLQQRPDMLARRADQTHRNSADGRLRYDDSVYFRADGEECFGGQGVFSGPGSYMKVLHSLLKRDGLLLQPQTVDLMFQPALEPRLEEQMNQHMDASPHINYGGPMPMVLRRSFGLGGIIALEDLDGENWRRKGSLTFGGGPNIVWQIDPKAGLCTLAFFQLEPWNDPVCRDLTRTFEHAIYAQYQQG
As for B1, in series [4], the Km is 780 ± 120 µM and the kcat turned out to be 0.0103 ± 0.0005 s⁻¹.

Source of the values: publication PMC3928684 (Biotechnology and bioengineering, 2009).
